From publication PMC3219723

Legend:
ASF/SF2 (Homo sapiens) = ASF/SF2 (Homo sapiens) (UniProt Q07955); details: cited from earlier work
[1] = target: Cp183 dimer (HBV core protein, free dimer) (Hepatitis B virus) (UniProt P03147); assay: SEC; 5.3 µM Cp183 dimer alone or mixed with 11.2 µM SRPKΔ in disassembly buffer, dialysed overnight against reassembly buffer (0.25 M NaCl, 10 mM DTT, 20 mM Tris-HCl pH 7.4); Superose 6; fractions by SDS-PAGE
Sequence of UniProt P03147 (P03147 whole entry): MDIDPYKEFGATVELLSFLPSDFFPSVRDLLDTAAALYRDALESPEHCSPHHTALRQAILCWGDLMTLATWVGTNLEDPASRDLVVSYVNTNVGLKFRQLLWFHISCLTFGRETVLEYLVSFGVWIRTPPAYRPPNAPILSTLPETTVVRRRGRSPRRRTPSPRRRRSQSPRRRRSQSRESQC

Sequence of UniProt Q07955 (Q07955 2-248): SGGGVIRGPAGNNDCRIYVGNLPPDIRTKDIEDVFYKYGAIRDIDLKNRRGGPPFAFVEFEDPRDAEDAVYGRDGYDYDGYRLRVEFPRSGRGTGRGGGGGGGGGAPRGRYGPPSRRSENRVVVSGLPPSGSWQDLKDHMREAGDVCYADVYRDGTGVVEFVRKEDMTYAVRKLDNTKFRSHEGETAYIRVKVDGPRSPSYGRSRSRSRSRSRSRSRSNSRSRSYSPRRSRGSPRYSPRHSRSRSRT

Substance | Kd (ASF/SF2 (Homo sapiens)) [nM] | stoichiometry N (SRPKΔ per Cp183 dimer) [1]
SRPK1 (from UniProt Q96SB4) | 50 | 
SRPK1ΔN1S1 (truncated Serine Arginine protein kinase 1) (from UniProt Q96SB4 1-655) (enzyme) |  | > 1
